Data reported in patent US20030104423A1 (WISCONSIN ALUMNI RESEARCH FOUNDATION, published 2003).

Assays:
[1] = target: T1, HMK-His6-σ70, 32P-labeled (pHMK-His6-σ70) (Escherichia coli, UniProt P00579 1-613); assay: far-Western of whole cell lysate, 32P-σ70 probe
T1 construct: range 1-613; also called ^32P-labeled ?^70; HMK-?^70

[2] = target: T2, σ70, native, untagged (pLN12) (Escherichia coli, UniProt P00579 1-613); assay: mixed with σ70 and passed over Ni-NTA (control)
T2 construct: range 1-613; also called native ?^70

[3] = target: T3, σ70 (C132S, C291S, C295S, S442C), labeled with Eu-DTPA-AMCA (pSigma70(442C)) (Escherichia coli, UniProt P00579 1-613); assay: electrophoretic mobility shift (EMS) assay, native gel
T3 construct: also called labeled ?^70

[4] = target: T3, σ70 (C132S, C291S, C295S, S442C), …; assay: EMS assay, competition with labeled β′-fragment
[5] = target: T1, HMK-His6-σ70, 32P-labeled …; assay: far-Western of β′1-319 in cell extract, normalized to Western
[6] = target: T1, HMK-His6-σ70, 32P-labeled …; assay: far-Western binding, 32P-σ70 probe; grade
[7] = target: T4, β′ 1-1407 wild type with C-terminal His6 (pTA577) (Escherichia coli, UniProt P0A8T7 1-1407); assay: co-purification with His6-β′ from cells, Western blot
T4 construct: range 1-1407; also called wt; wild type β′

[8] = target: T5, β′ 1-1407 R297S with C-terminal His6 (pTA606) (Escherichia coli, UniProt P0A8T7 1-1407); assay: as above
T5 construct: range 1-1407

[9] = target: T6, β′ 1-1407 Q300E with C-terminal His6 (pTA607) (Escherichia coli, UniProt P0A8T7 1-1407); assay: as above
T6 construct: range 1-1407

[10] = target: T1, HMK-His6-σ70, 32P-labeled …; assay: ordered fragment ladder far-Western, 32P-σ70 probe

B1: β′1-309, untagged (pTA518) (enzyme)
chain: MKDLLKFLKAQTKTEEFDAIKIALASPDMIRSWSFGEVKKPETINYRTFKPERDGLFCARIFGPVKDYECLCGKYKRLKHRGVICEKCGVEVTQTKVRRERMGHIELASPTAHIWFLKSLPSRIGLLLDMPLRDIERVLYFESYVVIEGGMTNLERQQILTEEQYLDALEEFGDEFDAKMGAEAIQALLKSMDLEQECEQLREELNETNSETKRKKLTKRIKLLEAFVQSGNKPEWMILTVLPVLPPDLRPLVPLDGGRFATSDLNDLYRRVINRNNRLKRLLDLAAPDIIVRNEKRMLQEAVDALLDN
Q: What does the source list for B1?
A: binding result [1]: binds; binding result [2]: binds

B2: β′100-309, untagged (pTA530) (enzyme)
chain: ERMGHIELASPTAHIWFLKSLPSRIGLLLDMPLRDIERVLYFESYVVIEGGMTNLERQQILTEEQYLDALEEFGDEFDAKMGAEAIQALLKSMDLEQECEQLREELNETNSETKRKKLTKRIKLLEAFVQSGNKPEWMILTVLPVLPPDLRPLVPLDGGRFATSDLNDLYRRVINRNNRLKRLLDLAAPDIIVRNEKRMLQEAVDALLDN
Q: Does B2 bind [1]?
A: binds

B3: HMK-His6-β′(100-309), IC5-labeled (pTA133) (enzyme)
chain: MARRASVHHHHHHMERMGHIELASPTAHIWFLKSLPSRIGLLLDMPLRDIERVLYFESYVVIEGGMTNLERQQILTEEQYLDALEEFGDEFDAKMGAEAIQALLKSMDLEQECEQLREELNETNSETKRKKLTKRIKLLEAFVQSGNKPEWMILTVLPVLPPDLRPLVPLDGGRFATSDLNDLYRRVINRNNRLKRLLDLAAPDIIVRNEKRMLQEAVDALLDN
notes: also called labeled β′-fragment; IC5-labeled β′-fragment
Q: Does B3 bind [3]?
A: binds

B4: HMK-His6-β′(100-309), unlabeled (pTA133) (enzyme)
chain: MARRASVHHHHHHMERMGHIELASPTAHIWFLKSLPSRIGLLLDMPLRDIERVLYFESYVVIEGGMTNLERQQILTEEQYLDALEEFGDEFDAKMGAEAIQALLKSMDLEQECEQLREELNETNSETKRKKLTKRIKLLEAFVQSGNKPEWMILTVLPVLPPDLRPLVPLDGGRFATSDLNDLYRRVINRNNRLKRLLDLAAPDIIVRNEKRMLQEAVDALLDN
notes: also called unlabeled β′-fragment
Q: Does B4 bind [4]?
A: binds

B5: β′1-319 Q300E (pTA617) (enzyme)
chain: MKDLLKFLKAQTKTEEFDAIKIALASPDMIRSWSFGEVKKPETINYRTFKPERDGLFCARIFGPVKDYECLCGKYKRLKHRGVICEKCGVEVTQTKVRRERMGHIELASPTAHIWFLKSLPSRIGLLLDMPLRDIERVLYFESYVVIEGGMTNLERQQILTEEQYLDALEEFGDEFDAKMGAEAIQALLKSMDLEQECEQLREELNETNSETKRKKLTKRIKLLEAFVQSGNKPEWMILTVLPVLPPDLRPLVPLDGGRFATSDLNDLYRRVINRNNRLKRLLDLAAPDIIVRNEKRMLEEAVDALLDNGRRGRAITGS
Q: For B5, which “relative binding against wild type β′1-319” value [5] is on record?
A: > 7 fold

B6: β′ mutant V272D (enzyme)
chain: MKDLLKFLKAQTKTEEFDAIKIALASPDMIRSWSFGEVKKPETINYRTFKPERDGLFCARIFGPVKDYECLCGKYKRLKHRGVICEKCGVEVTQTKVRRERMGHIELASPTAHIWFLKSLPSRIGLLLDMPLRDIERVLYFESYVVIEGGMTNLERQQILTEEQYLDALEEFGDEFDAKMGAEAIQALLKSMDLEQECEQLREELNETNSETKRKKLTKRIKLLEAFVQSGNKPEWMILTVLPVLPPDLRPLVPLDGGRFATSDLNDLYRRDINRNNRLKRLLDLAAPDIIVRNEKRMLQEAVDALLDNGRRGRAITGS
Q: Does B6 bind [6]?
A: no binding

B7: β′ mutant N274P (enzyme)
chain: MKDLLKFLKAQTKTEEFDAIKIALASPDMIRSWSFGEVKKPETINYRTFKPERDGLFCARIFGPVKDYECLCGKYKRLKHRGVICEKCGVEVTQTKVRRERMGHIELASPTAHIWFLKSLPSRIGLLLDMPLRDIERVLYFESYVVIEGGMTNLERQQILTEEQYLDALEEFGDEFDAKMGAEAIQALLKSMDLEQECEQLREELNETNSETKRKKLTKRIKLLEAFVQSGNKPEWMILTVLPVLPPDLRPLVPLDGGRFATSDLNDLYRRVIPRNNRLKRLLDLAAPDIIVRNEKRMLQEAVDALLDNGRRGRAITGS
Q: Does B7 bind [6]?
A: no binding

B8: β′ mutant L299D (enzyme)
chain: MKDLLKFLKAQTKTEEFDAIKIALASPDMIRSWSFGEVKKPETINYRTFKPERDGLFCARIFGPVKDYECLCGKYKRLKHRGVICEKCGVEVTQTKVRRERMGHIELASPTAHIWFLKSLPSRIGLLLDMPLRDIERVLYFESYVVIEGGMTNLERQQILTEEQYLDALEEFGDEFDAKMGAEAIQALLKSMDLEQECEQLREELNETNSETKRKKLTKRIKLLEAFVQSGNKPEWMILTVLPVLPPDLRPLVPLDGGRFATSDLNDLYRRVINRNNRLKRLLDLAAPDIIVRNEKRMDQEAVDALLDNGRRGRAITGS
Q: Does B8 bind [6]?
A: no binding

B9: σF of E. coli (the cell's own) (other)
chain: MNSLYTAEGVMDKHSLWQRYVPLVRHEALRLQVRLPASVELDDLLQAGGIGLLNAVERYDALQGTAFTTYAVQRIRGAMLDELRSRDWVPRSVRRNAREVAQAIGQLEQELGRNATETEVAERLGIDIADYRQMLLDTNNSQLFSYDEWREEHGDSIELVTDDHQRENPLQQLLDSNLRQRVMEAIETLPEREKLVLTLYYQEELNLKEIGAVLEVGESRVSQLHSQAIKRLRTKLGKL
Q: Does B9 bind [7]?
A: binds

Q: Does B9 bind [8]?
A: binds

Q: Does B9 bind [9]?
A: binds

B10: N-terminally His6-tagged β′ 1-309, hydroxylamine cleavage fragment (from pTA499) (enzyme)
chain: HHHHHHMKDLLKFLKAQTKTEEFDAIKIALASPDMIRSWSFGEVKKPETINYRTFKPERDGLFCARIFGPVKDYECLCGKYKRLKHRGVICEKCGVEVTQTKVRRERMGHIELASPTAHIWFLKSLPSRIGLLLDMPLRDIERVLYFESYVVIEGGMTNLERQQILTEEQYLDALEEFGDEFDAKMGAEAIQALLKSMDLEQECEQLREELNETNSETKRKKLTKRIKLLEAFVQSGNKPEWMILTVLPVLPPDLRPLVPLDGGRFATSDLNDLYRRVINRNNRLKRLLDLAAPDIIVRNEKRMLQEAVDALLDN
Q: Does B10 bind [10]?
A: binds

B11: β′60-309, untagged (pTA528) (enzyme)
chain: RIFGPVKDYECLCGKYKRLKHRGVICEKCGVEVTQTKVRRERMGHIELASPTAHIWFLKSLPSRIGLLLDMPLRDIERVLYFESYVVIEGGMTNLERQQILTEEQYLDALEEFGDEFDAKMGAEAIQALLKSMDLEQECEQLREELNETNSETKRKKLTKRIKLLEAFVQSGNKPEWMILTVLPVLPPDLRPLVPLDGGRFATSDLNDLYRRVINRNNRLKRLLDLAAPDIIVRNEKRMLQEAVDALLDN
Q: Does B11 bind [1]?
A: binds
